Test results published in the supplement of paper PMC10567573.

B1: VDR (parent)
chain: LIKFQVGLKKLNLHEEEHVLLMAI
B2: C9orf9 (parent)
chain: LTKASLKPRGCSKPPWRPPGGKL

Variants of: B1
Assay: protein stability index of a GFP-peptide fusion (GPS, HEK-293T) (PSI 1-6); higher = more stable
Conditions: c terminus: a fixed tail appended
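Also: lentivirally expressed fusions sorted by FACS into six bins by GFP to DsRed ratio, PSI derived from sequencing read proportions per bin multiplied by bin number.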

Going from LIKFQVGLKKLNLHEEEHGLLMAI [V19G] to LIKFQVGLKKLNLHEEEHFLLMAI [V19F], the protein stability index rises from 1.4 to 2.52.

Going from LIKFQVGLKKLNLHEEEHQLLMAI [V19Q] to LIKFQVGLKKLNLHEEEHTLLMAI [V19T], the protein stability index falls from 3.04 to 2.52.

Compared with LIKFQVGLKKLNLHEEEHNLLMAI [V19N], LIKFQVGLKKLNLHEEEHKLLMAI [V19K] is higher in protein stability index: 1.59 for the first, 1.99 for the second.

First: LIKFQVGLKKLNLHEEEHDLLMAI [V19D]
Second: LIKFQVGLKKLNLHEEEHRLLMAI [V19R]
The protein stability index of the first is higher: 3.54 for the first, 2.89 for the second.

First: LIKFQVGLKKLNLHEEEHHLLMAI [V19H]
Second: LIKFQVGLKKLNLHEEEHILLMAI [V19I]
The protein stability index of the first is higher: 3.1 for the first, 1.93 for the second.

First: LIKFQVGLKKLNLHEEEHWLLMAI [V19W]
Second: LIKFQVGLKKLNLHEEEHVLLMLI [A23L]
The protein stability index of the first is lower: 1.04 for the first, 3.49 for the second.

Going from LIKFQVGLKKLNLHEEEHVLLMHI [A23H] to LIKFQVGLKKLNLHEEEHVLLMRI [A23R], the protein stability index falls from 2.49 to 2.37.

Compared with LIKFQVGLKKLNLHEEEHVLLMYI [A23Y], LIKFQVGLKKLNLHEEEHVLLMEI [A23E] is lower in protein stability index: 3.16 for the first, 2.23 for the second.

Going from LIKFQVGLKKLNLHEEEHVLLMDI [A23D] to LIKFQVGLKKLNLHEEEHVLLMVI [A23V], the protein stability index falls from 3.29 to 1.85.

Going from LIKFQVGLKKLNLHEEEHVLYMAI [L21Y] to LIKFQVGLKKLNLHEEEHVLCMAI [L21C], the protein stability index rises from 2.92 to 3.18.

First: LIKFQVGLKKLNLHEEEHVLNMAI [L21N]
Second: LIKFQVGLKKLNLHEEEHVLMMAI [L21M]
The protein stability index of the first is lower: 1.68 for the first, 2.45 for the second.

First: LIKFQVGLKKLNLHEEEHVLQMAI [L21Q]
Second: LIKFQVGLKKLNLHEEEHVLDMAI [L21D]
The protein stability index of the first is higher: 2.02 for the first, 1.85 for the second.

First: LIKFQVGLKKLNLHEEEHVLSMAI [L21S]
Second: LIKFQVGLKKLNLHEEEHVLVMAI [L21V]
The protein stability index of the first is lower: 2.08 for the first, 4.64 for the second.

First: LIKFQVGLKKLNLHEEEHVLPMAI [L21P]
Second: LIKFQVGLKKLNLHEEEHVLKMAI [L21K]
The protein stability index of the first is lower: 1.69 for the first, 3.43 for the second.

Compared with LIKFQVGLKKLNLHEEEHVLGMAI [L21G], LIKFQVGLKKLNLHEEEHVLLMAE [I24E] is lower in protein stability index: 2.76 for the first, 2.55 for the second.

Compared with LIKFQVGLKKLNLHEEEHVLLMAF [I24F], LIKFQVGLKKLNLHEEEHVLLMAD [I24D] is lower in protein stability index: 3.74 for the first, 1.87 for the second.

Going from LIKFQVGLKKLNLHEEEHVLLMAK [I24K] to LIKFQVGLKKLNLHEEEHVLLMAP [I24P], the protein stability index falls from 2.69 to 1.21.

First: LIKFQVGLKKLNLHEEEHVLLMAW [I24W]
Second: LIKFQVGLKKLNLHEEEHVLLMAA [I24A]
The protein stability index of the first is lower: 2.33 for the first, 2.8 for the second.

First: LIKFQVGLKKLNLHEEEHVLLMAY [I24Y]
Second: LIKFQVGLKKLNLHEEEHVLLMAQ [I24Q]
The protein stability index of the first is higher: 3.26 for the first, 2.48 for the second.

Compared with LIKFQVGLKKLNLHEEEHVLLMAN [I24N], LIKFQVGLKKLNLHEEEHVLLMAR [I24R] is lower in protein stability index: 2.74 for the first, 2.35 for the second.

Going from LIKFQVGLKKLNLHEEEHVLLMAC [I24C] to LIKFQVGLKKLNLHEEEHVLLMAT [I24T], the protein stability index falls from 3.08 to 1.85.

Going from LIKFQVGLKKLNLHEEEHVLLMAS [I24S] to LIKFQVGLKKLNLHEEEHVTLMAI [L20T], the protein stability index rises from 1.97 to 2.4.

Going from LIKFQVGLKKLNLHEEEHVGLMAI [L20G] to LIKFQVGLKKLNLHEEEHVALMAI [L20A], the protein stability index falls from 4.03 to 2.05.

First: LIKFQVGLKKLNLHEEEHVVLMAI [L20V]
Second: LIKFQVGLKKLNLHEEEHVMLMAI [L20M]
The protein stability index of the first is lower: 1.01 for the first, 2.15 for the second.

Compared with LIKFQVGLKKLNLHEEEHVQLMAI [L20Q], LIKFQVGLKKLNLHEEEHVELMAI [L20E] is higher in protein stability index: 1.81 for the first, 2.24 for the second.

Going from LIKFQVGLKKLNLHEEEHVILMAI [L20I] to LIKFQVGLKKLNLHEEEHVPLMAI [L20P], the protein stability index falls from 2.83 to 2.31.

Going from LIKFQVGLKKLNLHEEEHVCLMAI [L20C] to LIKFQVGLKKLNLHEEEHVFLMAI [L20F], the protein stability index falls from 3.71 to 2.29.

Compared with LIKFQVGLKKLNLHEEEHVHLMAI [L20H], LIKFQVGLKKLNLHEEEHVKLMAI [L20K] is higher in protein stability index: 1.86 for the first, 1.91 for the second.

Compared with LIKFQVGLKKLNLHEEEHVDLMAI [L20D], LIKFQVGLKKLNLHEEEHVYLMAI [L20Y] is higher in protein stability index: 1.19 for the first, 2.9 for the second.

First: LIKFQVGLKKLNLHEEEHVLLCAI [M22C]
Second: LIKFQVGLKKLNLHEEEHVLLWAI [M22W]
The protein stability index of the first is lower: 2.61 for the first, 2.81 for the second.

Going from LIKFQVGLKKLNLHEEEHVLLSAI [M22S] to LIKFQVGLKKLNLHEEEHVLLFAI [M22F], the protein stability index rises from 1.68 to 2.88.

Going from LIKFQVGLKKLNLHEEEHVLLTAI [M22T] to LIKFQVGLKKLNLHEEEHVLLGAI [M22G], the protein stability index rises from 1.84 to 2.01.

Going from LIKFQVGLKKLNLHEEEHVLLNAI [M22N] to LIKFQVGLKKLNLHEEEHVLLKAI [M22K], the protein stability index falls from 2.99 to 1.7.

Going from LIKFQVGLKKLNLHEEEHVLLAAI [M22A] to LIKFQVGLKKLNLHEEEHVLLIAI [M22I], the protein stability index falls from 3.3 to 2.91.

First: LIKFQVGLKKLNLHEEEHVLLEAI [M22E]
Second: LIKFQVGLKKLNLHEEEHVLLHAI [M22H]
The protein stability index of the first is lower: 1.15 for the first, 2.06 for the second.

First: LIKFQVGLKKLNLHEEEHVLLPAI [M22P]
Second: LIKFQVGLKKLNLHEEEHVLLRAI [M22R]
The protein stability index of the first is higher: 2.09 for the first, 1.33 for the second.

Going from LIKFQVGLKKLNLHEEEHVLLYAI [M22Y] to LIKFQVGLKKLNLHEEEHVLLLAI [M22L], the protein stability index rises from 2.25 to 2.66.

First: LIKFQVGLKKLNLHEEEHVLLDAI [M22D]
Second: LIKFQVGLKKLNLHEEEHVLLQAI [M22Q]
The protein stability index of the first is lower: 1.17 for the first, 2.36 for the second.

Variants of: B2
Assay: as above
Conditions: c terminus: native

First: LTPASLKPRGCSKPPWRPPGGKL [K3P]
Second: LTTASLKPRGCSKPPWRPPGGKL [K3T]
The protein stability index of the first is higher: 2.66 for the first, 2.19 for the second.

Going from LTLASLKPRGCSKPPWRPPGGKL [K3L] to LTYASLKPRGCSKPPWRPPGGKL [K3Y], the protein stability index rises from 2.36 to 2.73.

Going from LTGASLKPRGCSKPPWRPPGGKL [K3G] to LTQASLKPRGCSKPPWRPPGGKL [K3Q], the protein stability index rises from 1.74 to 2.6.

Compared with LTHASLKPRGCSKPPWRPPGGKL [K3H], LTNASLKPRGCSKPPWRPPGGKL [K3N] is lower in protein stability index: 2.28 for the first, 2.08 for the second.

Compared with LTDASLKPRGCSKPPWRPPGGKL [K3D], LTFASLKPRGCSKPPWRPPGGKL [K3F] is lower in protein stability index: 2.39 for the first, 1.51 for the second.

First: LTSASLKPRGCSKPPWRPPGGKL [K3S]
Second: LTEASLKPRGCSKPPWRPPGGKL [K3E]
The protein stability index of the first is lower: 1.91 for the first, 1.97 for the second.

Compared with LTAASLKPRGCSKPPWRPPGGKL [K3A], LTVASLKPRGCSKPPWRPPGGKL [K3V] is higher in protein stability index: 1.38 for the first, 2.86 for the second.

Compared with LTKGSLKPRGCSKPPWRPPGGKL [A4G], LTKDSLKPRGCSKPPWRPPGGKL [A4D] is lower in protein stability index: 1.36 for the first, 1.25 for the second.

Going from LTKTSLKPRGCSKPPWRPPGGKL [A4T] to LTKCSLKPRGCSKPPWRPPGGKL [A4C], the protein stability index falls from 1.78 to 1.63.

Going from LTKVSLKPRGCSKPPWRPPGGKL [A4V] to LTKPSLKPRGCSKPPWRPPGGKL [A4P], the protein stability index rises from 1.58 to 3.55.
